pKa data for one substance are collected here from paper PMC6884320.

This data set relates to Glu92. Description: kinetics.

What is called pKa is the negative logarithm of the acid dissociation constant. As to “AlleyCat2 (second-round evolved AlleyCat) (M144R; other substitutions not stated (includes the AlleyCat mutation that gives Glu92))”, the pKa (not stated (Figure S14 not available), Ca2+-bound, turning over leflunomide) is reported as 7.06 ± 0.02 and the pKa (turning over the Kemp elimination substrate, cited from earlier work) is given as 6.73 ± 0.03.
